Assays:
[1] = molecular target: the molecule itself; assay: native gel or EMSA; BN-PAGE (4-16% gradient) of TatCHis variants purified in digitonin from the Tat wild-type strain C43(DE3); Coomassie stained
[2] = molecular target: T1, TatC with a hexa-histidine tag on the C-terminus, co-produced with TatB (with or without TatA, TatD, TatE) (Escherichia coli, UniProt P69423 1-258); assay: co-purification by Ni(II) affinity chromatography + SEC; TatCHis-containing complexes from digitonin-solubilized membranes of strain DADE producing TatABCHisDE; Ni(II) HiTrap column, then Superose 6 in 20 mM MOPS-HCl pH 7.2, 200 mM NaCl, 0.1% digitonin; peak fraction on SDS-PAGE, Coomassie; conditions: partners not purified
T1 construct: TatC, integral membrane protein of the Escherichia coli Tat system; protomer molecular weight printed as 28.9 kDa; The printed protomer weight of 28.9 kDa fits the whole TatC protein; also called TatCHis; TatCHis of Tat(A)BCHis; source: E. coli strain DADE (MC4100 ΔtatABCDΔtatE), overproduced from pFAT75CH (TatABCHisDE) or pFAT75CHΔA (TatBCHis); digitonin-solubilized membranes; not shown: His6, …
T1 sequence (looked up): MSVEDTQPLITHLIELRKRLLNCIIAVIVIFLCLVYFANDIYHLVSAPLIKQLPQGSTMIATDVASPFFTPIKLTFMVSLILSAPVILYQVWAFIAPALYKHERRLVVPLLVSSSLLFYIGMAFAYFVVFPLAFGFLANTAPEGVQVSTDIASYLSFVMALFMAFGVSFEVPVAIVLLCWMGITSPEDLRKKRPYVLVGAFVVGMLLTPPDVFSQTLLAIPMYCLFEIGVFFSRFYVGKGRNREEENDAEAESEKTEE

[3] = molecular target: the molecule itself; assay: native gel or EMSA; BN-PAGE (5-18% gradient) of digitonin-solubilized whole membranes of strain DADE overproducing TatBHis, TatABCHisDE or TatBCHis; immunoblot with anti-TatB or anti-His tag

B1: TatC with a hexa-histidine tag on the C-terminus, produced alone from pFAT588 (natural protein, Escherichia coli (strain MC4100), UniProt P69423 1-258, looked up)
chain: MVSVEDTQPLITHLIELRKRLLNCIIAVIVIFLCLVYFANDIYHLVSAPLIKQLPQGSTMIATDVASPFFTPIKLTFMVSLILSAPVILYQVWAFIAPALYKHERRLVVPLLVSSSLLFYIGMAFAYFVVFPLAFGFLANTAPEGVQVSTDIASYLSFVMALFMAFGVSFEVPVAIVLLCWMGITSPEDLRKKRPYVLVGAFVVGMLLTPPDVFSQTLLAIPMYCLFEIGVFFSRFYVGKGRNREEENDAEAESEKTEE
notes: TatC, Escherichia coli; tatC gene amplified from chromosomal DNA of strain MC4100, cloned NcoI/BglII into pQE60; protomer molecular weight printed as 28.9 kDa; also called TatCHis; source: E. coli strain C43(DE3) or its ΔtatABC derivative C43ΔTat(DE3), overproduced from pFAT588; digitonin-solubilized membranes; not shown: His6, C-terminal, kept
stoichiometry N [1]: ≤ 7

B2: TatB, untagged, co-produced with TatCHis (natural protein, Escherichia coli, UniProt P69425 1-171, looked up)
chain: MFDIGFSELLLVFIIGLVVLGPQRLPVAVKTVAGWIRALRSLATTVQNELTQELKLQEFQDSLKKVEKASLTNLTPELKASMDELRQAAESMKRSYVANDPEKASDEAHTIHNPVVKDNEAAHEGVTPAAAQTQASSPEQKPETTPEPVVKPAADAEPKTAAPSPSSSDKP
notes: TatB, integral membrane protein of the Escherichia coli Tat system; protomer molecular weight printed as 18.4 kDa; source: E. coli strain DADE (MC4100 ΔtatABCDΔtatE), overproduced from pFAT75CH or pFAT75CHΔA; digitonin-solubilized membranes
binding result [2]: binds

B3: TatB with a C-terminal hexa-histidine tag (natural protein, Escherichia coli, UniProt P69425 1-171, looked up)
chain: B2 chain
notes: TatB, integral membrane protein of the Escherichia coli Tat system; protomer molecular weight printed as 18.4 kDa; Produced in the absence of any other Tat components; detected with anti-TatB serum; also called TatBHis; source: E. coli strain DADE (MC4100 ΔtatABCDΔtatE), overproduced from pFAT586; digitonin-solubilized membranes
stoichiometry N [3]: ≤ 4
